Measurements from patent US20230265151A1, “GIP/GLP1 CO-AGONIST COMPOUNDS” (priority 2020, published 2023).
Substitutions are numbered along the chain they refer to.

T1: human GIP receptor (human, UniProt P48546 22-466)
T1 construct: whole, on cells; also called hGIPR; human glucose-dependent insulinotropic polypeptide receptor
T1 sequence (looked up): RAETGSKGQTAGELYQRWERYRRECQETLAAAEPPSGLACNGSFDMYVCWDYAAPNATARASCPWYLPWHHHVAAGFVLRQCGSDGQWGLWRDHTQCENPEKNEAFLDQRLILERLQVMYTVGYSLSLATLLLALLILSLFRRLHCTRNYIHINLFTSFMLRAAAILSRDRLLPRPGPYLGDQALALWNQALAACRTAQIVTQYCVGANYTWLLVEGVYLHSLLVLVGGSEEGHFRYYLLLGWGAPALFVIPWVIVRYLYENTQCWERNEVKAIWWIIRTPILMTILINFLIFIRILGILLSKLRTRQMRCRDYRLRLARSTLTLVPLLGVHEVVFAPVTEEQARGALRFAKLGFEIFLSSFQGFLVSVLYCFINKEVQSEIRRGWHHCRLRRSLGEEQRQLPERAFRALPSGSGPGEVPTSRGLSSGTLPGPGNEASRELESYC

B1: Y-Aib-EGT-αMeF(2F)-TSD-4Pal-Aib-I-αMeL-LD-Orn-QAQ-Aib-Orn-FIK((2-[2-(2-Amino-ethoxy)-ethoxy]-acetyl)2-(γ-Glu)2-CO-(CH2)12-CO2H)-αMeY-LIK((2-[2-(2-Amino-ethoxy)- … (peptide)
peptide: YXEGTXTSDXXIXLDXQAQXXFIKXLIKGGPSSGAPPPS
modifications: Aib2, αMeF(2F)6, 4Pal10, Aib11, αMeL13, Orn16, Aib20, Orn21, K24(Z1), αMeY25, K28(Z1), C-term NH2; Z1=AEEA2-(γ-Glu)2-CO-(CH2)12-CO2H
B2: Y-Aib-EGT-αMeF(2F)-TSD-4Pal-Aib-I-αMeL-LD-Orn-QAQ-Aib-Orn-FIK((2-[2-(2-Amino-ethoxy)-ethoxy]-acetyl)3-(γ-Glu)-CO-(CH2)12-CO2H)-αMeY-LIK((2-[2-(2-Amino-ethoxy)-e … (peptide)
peptide: B1 peptide
modifications: Aib2, αMeF(2F)6, 4Pal10, Aib11, αMeL13, Orn16, Aib20, Orn21, K24(Z1), αMeY25, K28(Z1), C-term NH2; Z1=AEEA3-(γ-Glu)-CO-(CH2)12-CO2H
B3: Y-Aib-EGT-αMeF(2F)-TSD-4Pal-Aib-I-αMeL-LD-Orn-QAQ-Aib-Orn-FIK(PEG5-(γ-Glu)-CO-(CH2)12-CO2H)-αMeY-LIK(PEG5-(γ-Glu)-CO-(CH2)12-CO2H)GGPSSGAPPPS-NH2 (peptide)
peptide: B1 peptide
modifications: Aib2, αMeF(2F)6, 4Pal10, Aib11, αMeL13, Orn16, Aib20, Orn21, K24(Z1), αMeY25, K28(Z1), C-term NH2; Z1=PEG5-(γ-Glu)-CO-(CH2)12-CO2H
B4: Y-Aib-EGT-αMeF(2F)-TSD-4Pal-Aib-I-αMeL-LD-Orn-QAQ-Aib-Orn-FIK(Ahx-(2-[2-(2-Amino-ethoxy)-ethoxy]-acetyl)-(γ-Glu)-(10-(4-carboxyphenoxy)decanoyl))-αMeY-LIK(Ahx-( … (peptide)
peptide: B1 peptide
modifications: Aib2, αMeF(2F)6, 4Pal10, Aib11, αMeL13, Orn16, Aib20, Orn21, K24(Z1), αMeY25, K28(Z1), C-term NH2; Z1=Ahx-AEEA-(γ-Glu)-(10-(4-carboxyphenoxy)decanoyl)
B5: Y-Aib-EGT-αMeF(2F)-TSD-4Pal-Aib-I-αMeL-LD-Orn-QAQ-Aib-Orn-FIK(((2-[2-(2-Amino-ethoxy)-ethoxy]-acetyl)2--Trx-(γ-Glu)-CO-(CH2)12-CO2H)-αMeY-LIK(((2-[2-(2-Amino-et … (peptide)
peptide: B1 peptide
modifications: Aib2, αMeF(2F)6, 4Pal10, Aib11, αMeL13, Orn16, Aib20, Orn21, K24(Z1), αMeY25, K28(Z1), C-term NH2; Z1=AEEA2-Trx-(γ-Glu)-CO-(CH2)12-CO2H
B6: Y-Aib-EGT-αMeF(2F)-TSD-4Pal-Aib-I-αMeL-LD-Orn-QAQ-Aib-Orn-FIK((γ-Glu)-(2-[2-(2-Amino-ethoxy)-ethoxy]-acetyl)2-(γ-Glu)-(10-(4-carboxyphenoxy)decanoyl))-αMeY-LIK( … (peptide)
peptide: B1 peptide
modifications: Aib2, αMeF(2F)6, 4Pal10, Aib11, αMeL13, Orn16, Aib20, Orn21, K24(Z1), αMeY25, K28(Z1), C-term NH2; Z1=(γ-Glu)-AEEA2-(γ-Glu)-(10-(4-carboxyphenoxy)decanoyl)
B7: Y-Aib-EGT-αMeF(2F)-TSDY-Aib-I-αMeL-LD-Orn-QAQ-Aib-Orn-FIK((2-[2-(2-Amino-ethoxy)-ethoxy]-acetyl)2-(γ-Glu)2-CO-(CH2)12-CO2H)-αMeY-LIK((2-[2-(2-Amino-ethoxy)-etho … (peptide)
peptide: B1 peptide with X10Y
modifications: Aib2, αMeF(2F)6, Aib11, αMeL13, Orn16, Aib20, Orn21, K24(Z1), αMeY25, K28(Z1), C-term NH2; Z1=AEEA2-(γ-Glu)2-CO-(CH2)12-CO2H
B8: Y-Aib-EGT-αMeF(2F)-TSD-4Pal-Aib-I-αMeL-LD-Orn-QAQ-Aib-Orn-FIK((2-[2-(2-Amino-ethoxy)-ethoxy]-acetyl)-(γ-Glu)3-CO-(CH2)12-CO2H)-αMeY-LIK((2-[2-(2-Amino-ethoxy)-e … (peptide)
peptide: B1 peptide
modifications: Aib2, αMeF(2F)6, 4Pal10, Aib11, αMeL13, Orn16, Aib20, Orn21, K24(Z1), αMeY25, K28(Z1), C-term NH2; Z1=AEEA-(γ-Glu)3-CO-(CH2)12-CO2H
B9: Y-Aib-EGT-αMeF(2F)-TSD-4Pal-Aib-I-αMeL-LD-Orn-QAQ-Aib-Orn-FIK(((2-[2-(2-Amino-ethoxy)-ethoxy]-acetyl)-Trx-(γ-Glu)-CO-(CH2)12-CO2H)-αMeY-LIK(((2-[2-(2-Amino-etho … (peptide)
peptide: B1 peptide
modifications: Aib2, αMeF(2F)6, 4Pal10, Aib11, αMeL13, Orn16, Aib20, Orn21, K24(Z1), αMeY25, K28(Z1), C-term NH2; Z1=AEEA-Trx-(γ-Glu)-CO-(CH2)12-CO2H

How the values were obtained:
human GIP receptor = biological target: T1, human GIP receptor; experiment: SPA competition vs [125I]-GIP, hGIPR membranes
human glucagon receptor = biological target: T2, human glucagon receptor (human, UniProt P47871 26-477); experiment: SPA competition vs [125I]-Gcg, hGcgR membranes
T2 construct: whole, on cells; also called hGCGR; hGcgR
T2 sequence (P47871 26-477): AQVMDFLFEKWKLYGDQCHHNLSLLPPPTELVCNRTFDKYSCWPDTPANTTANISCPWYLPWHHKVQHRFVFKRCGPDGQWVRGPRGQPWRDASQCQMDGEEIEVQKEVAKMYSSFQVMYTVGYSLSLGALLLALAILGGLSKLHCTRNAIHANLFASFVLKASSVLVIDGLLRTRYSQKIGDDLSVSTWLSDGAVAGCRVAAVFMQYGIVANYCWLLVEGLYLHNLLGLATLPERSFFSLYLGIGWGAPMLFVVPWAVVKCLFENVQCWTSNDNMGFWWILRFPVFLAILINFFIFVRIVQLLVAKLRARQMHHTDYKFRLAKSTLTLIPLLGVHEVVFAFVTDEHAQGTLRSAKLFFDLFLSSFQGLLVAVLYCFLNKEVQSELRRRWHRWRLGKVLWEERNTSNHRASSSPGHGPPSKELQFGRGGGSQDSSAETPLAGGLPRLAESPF

human GLP-1 receptor = biological target: T3, human GLP-1 receptor (human, UniProt P43220 24-463); experiment: SPA competition vs [125I]-GLP-1, hGLP-1R membranes
T3 construct: whole, on cells; also called hGLP-1R; human glucagon-like peptide-1 receptor
Method in brief: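 Competition binding in 25 mM HEPES pH 7.4, 2.5 mM CaCl₂, 1 mM MgCl₂, 0.1% bacitracin, 0.003% TWEEN-20, EDTA-free protease inhibitors. IC₅₀ from four-parameter nonlinear fit; Kᵢ given as geometric mean ± SEM, n = independent replicates on different days.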

Binder	Ki (human GIP receptor)	Ki (human glucagon receptor)	Ki (human GLP-1 receptor)
B1	0.0427 nM	382 nM	0.343 nM
B2	0.0351 nM	605 nM	0.226 nM
B3	0.0486 nM	208 nM	0.381 nM
B4	0.0143 nM	60.1 nM	0.243 nM
B5	0.0346 nM	945 nM	0.121 nM
B6	0.0236 nM	151 nM	0.263 nM
B7	0.0368 nM	88.5 nM	0.307 nM
B8	0.046 nM	115 nM	0.299 nM
B9	0.0376 nM	258 nM	0.254 nM
